Test [1] has as its target Murine APRIL (K104-L241) thioredoxin fusion protein (murine) (UniProt Q9D777). The test can be described thus: competitive displacement ELISA on immobilized APRIL; unlabeled baculovirus BCMA varied, tracer biotinylated BCMA-Z.
Test [2] shares this target. The test can be described thus: competitive displacement ELISA on immobilized APRIL; unlabeled baculovirus BCMA varied, tracer biotinylated baculovirus BCMA. (In general: In an ELISA, binding on a coated surface is turned into a signal by an enzyme label.)
For test [3] the target is unchanged. Briefly: competitive displacement ELISA; immobilized APRIL, tracer biotinylated BCMA-Z.
For test [4] the target is unchanged. Briefly: SPR (BIAcore 3000), APRIL immobilized, 1:1 model. A general note: Surface plasmon resonance follows binding to a sensor surface in real time, without labels.
Test [5] has the same target. The test can be described thus: competitive displacement ELISA on immobilized APRIL; unbiotinylated BCMA-Fc varied, tracer biotinylated BCMA-Z.
Test [6] shares this target. Briefly: competition ELISA; immobilized APRIL, tracer biotinylated BCMA-Z.

Chain of BCMA-Fc (Q02223 5-51): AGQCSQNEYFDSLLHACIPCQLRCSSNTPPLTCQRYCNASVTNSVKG
Chain of BCMA ECD purified from baculovirus expression (Q02223 4-53): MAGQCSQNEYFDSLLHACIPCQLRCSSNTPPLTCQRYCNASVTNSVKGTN

“BCMA ECD purified from baculovirus expression (from UniProt Q02223 4-53) (receptor)”: the IC50 (read off the curve) in test [1] stood at 10 nM; in test [2] it was 20 nM.

By IC50 is commonly meant the concentration that inhibits the measured activity by half. Lower therefore signals greater potency. As a reminder, the Kd is the equilibrium constant for the complex coming apart. Lower therefore signals tighter binding. What is called kon is a measure of how fast the partners come together. A low value points to slower complex formation. “BCMA-Fc (from UniProt Q02223 5-51) (Fc fusion)” showed an IC50 in test [3] of 5 nM. In test [4], this substance gave a Kd of 0.2 nM and a kon of 3.12e+06 M⁻¹ s⁻¹. The IC50 (read off the curve) in test [5] amounted to 7 nM. The same substance returned an IC50 in test [6] of 7 to 10 nM.

These data come from US20070249530A1.
